Measurements taken from patent publication US20230293647A1.

Key:
[1] = biological target: recombinant full length SARS-CoV-2 spike protein (SARS-CoV-2) (UniProt P0DTC2)
[2] = biological target: FcγR on K562 cells (reported to express RNA for FcγRIIa and IIIa/b)

Row | Substance | EC50 (read off the curve) [1] [nM] | EC50 (read off the curve) [2] [nM]
1 | ACE2-CR3022 scFv-Fc (from UniProt Q9BYF1 18-740) (Fc fusion) | 0.09 | –
2 | CR3022 scFv-ACE2-Fc (from UniProt Q9BYF1 18-740) (Fc fusion) | 0.06 | –
3 | Inactive ACE2 (HH:NN) (18-740)-Fc (Fc fusion) | – | 40
